In patent US6960559 (UNIVERSITY OF ZURICH, dated 2005):
The star is where a group is joined. Cbz = O=C(OCc1ccccc1)*

Each binder was assayed against T1, C6 plasma membrane associated metalloendoprotease (rat C6 glioblastoma cells) (rat) (assay: cell-based or functional assay).

| Binder | IC50 on CNS myelin [µM], half maximal inhibition of C6 cell spreading [µM] |
| --- | --- |
| H-Ala-Phe-Tyr-NH2 [AFY-NH2] | 1000 |
| Cbz-Gly-Phe-NH2 (SMILES NC(=O)[C@H](Cc1ccccc1)NC(=O)CNC(=O)OCc1ccccc1) [carbobenzoxy-Gly-Phe-amide] | 600 |
| Cbz-Tyr-Tyr-OH (SMILES O=C(N[C@@H](Cc1ccc(O)cc1)C(=O)N[C@@H](Cc1ccc(O)cc1)C(=O)O)OCc1ccccc1) [carbobenzoxy-tyrosine-tyrosine] | 300 |
| Cbz-Ala-Phe-NH2 (SMILES C[C@H](NC(=O)OCc1ccccc1)C(=O)N[C@@H](Cc1ccccc1)C(N)=O) [cbz-AF-NH2] | 600 |
| Cbz-Gly-Phe-Phe-OH (SMILES O=C(CNC(=O)OCc1ccccc1)N[C@@H](Cc1ccccc1)C(=O)N[C@@H](Cc1ccccc1)C(=O)O) [cbz-GFF] | 300 |
| H-FAFY-NH2 [FAFY-NH2] | 300 |
| Cbz-Ala-Phe-Tyr-NH2 (SMILES C[C@H](NC(=O)OCc1ccccc1)C(=O)N[C@@H](Cc1ccccc1)C(=O)N[C@@H](Cc1ccc(O)cc1)C(N)=O) [cbz-AFY-NH2] | 20 |
| Cbz-Phe-Ala-NH2 (SMILES C[C@H](NC(=O)[C@H](Cc1ccccc1)NC(=O)OCc1ccccc1)C(N)=O) [cbz-FA-NH2] | 600 |
| Cbz-Gly-Phe-Phe-NH2 (SMILES NC(=O)[C@H](Cc1ccccc1)NC(=O)[C@H](Cc1ccccc1)NC(=O)CNC(=O)OCc1ccccc1) [Carbobenzoxy-Gly-Phe-Phe-amide] | 8 |
| Cbz-FAFY-NH2 (SMILES C[C@H](NC(=O)[C@H](Cc1ccccc1)NC(=O)OCc1ccccc1)C(=O)N[C@@H](Cc1ccccc1)C(=O)N[C@@H](Cc1ccc(O)cc1)C(N)=O) [carbobenzoxy-Phe-Ala-Phe-Tyr-amide] | 3 |

Molecular target: T1, C6 plasma membrane associated …
Test: cell-based or functional assay
Remark: another data set of the same source

| Binder | IC50 of C6 cell spreading on CNS myelin [µM] |
| --- | --- |
| Cbz-Gly-Phe-Phe-OMe (SMILES COC(=O)[C@H](Cc1ccccc1)NC(=O)[C@H](Cc1ccccc1)NC(=O)CNC(=O)OCc1ccccc1) [cbz-GFF-OCH3] | 5 |
| Cbz-Gly-Leu-Phe-NH2 (SMILES CC(C)C[C@H](NC(=O)CNC(=O)OCc1ccccc1)C(=O)N[C@@H](Cc1ccccc1)C(N)=O) [cbz-GLF-NH2] | 5 |
